Measurements as given in US11306156.
Several values for one entry are separate records, joined by “and”; a condition that tells them apart may be missing. Equal values may be shown once.

Legend:
[1] = biological target: D3H44 Fab heavy chain L143E_K145T_Q179E_S188L, C-terminal ABD2-His6 tag; assay: LCCA: heavy chain co-expressed with two light chains, SPR detection of light chain tags; L1:L2 DNA 1:3, normalized to 1:1; competing light chain m20
[2] = biological target: D3H44 Fab heavy chain S186R, C-terminal ABD2-His6 tag; assay: as above
[3] = biological target: D3H44 Fab heavy chain S186K, C-terminal ABD2-His6 tag; assay: LCCA: heavy chain co-expressed with two light chains, SPR detection of light chain tags; L1:L2 DNA 1:9, normalized to 1:1; competing light chain m11
[4] = biological target: D3H44 Fab heavy chain L143E_K145T_S188L, C-terminal ABD2-His6 tag; assay: as above
[5] = biological target: D3H44 Fab heavy chain Q179R, C-terminal ABD2-His6 tag; assay: LCCA: heavy chain co-expressed with two light chains, SPR detection of light chain tags; L1:L2 DNA 1:3, normalized to 1:1; competing light chain m11
[6] = biological target: D3H44 Fab heavy chain S186K, C-terminal ABD2-His6 tag; assay: as above
[7] = biological target: D3H44 Fab heavy chain L143E_K145T_S188L, C-terminal ABD2-His6 tag; assay: as above
[8] = biological target: D3H44 Fab heavy chain L143E_K145T, C-terminal ABD2-His6 tag; assay: LCCA: heavy chain co-expressed with two light chains, SPR detection of light chain tags; L1:L2 DNA 1:9, normalized to 1:1; competing light chain m11
[9] = biological target: D3H44 Fab heavy chain L143E_K145T, C-terminal ABD2-His6 tag; assay: LCCA: heavy chain co-expressed with two light chains, SPR detection of light chain tags; L1:L2 DNA 1:3, normalized to 1:1; competing light chain m11
[10] = biological target: D3H44 Fab heavy chain L143E_K145T; assay: LCCA, L1:L2 DNA 1:3 normalised to 1:1, SPR of light chain tags; competitor m34
[11] = biological target: D3H44 Fab heavy chain L143K_D146G; assay: as above
[12] = biological target: D3H44 Fab heavy chain L143R, C-terminal ABD2-His6 tag; assay: LCCA: heavy chain co-expressed with two light chains, SPR detection of light chain tags; L1:L2 DNA 1:3, normalized to 1:1; competing light chain m18
[13] = biological target: D3H44 Fab heavy chain L143E_K145T, C-terminal ABD2-His6 tag; assay: as above
[14] = biological target: D3H44 Fab heavy chain L143R, C-terminal ABD2-His6 tag; assay: LCCA: heavy chain co-expressed with two light chains, SPR detection of light chain tags; L1:L2 DNA 1:9, normalized to 1:1; competing light chain m11
[15] = biological target: D3H44 Fab heavy chain L143R, C-terminal ABD2-His6 tag; assay: LCCA: heavy chain co-expressed with two light chains, SPR detection of light chain tags; L1:L2 DNA 1:3, normalized to 1:1; competing light chain m11
[16] = biological target: D3H44 Fab heavy chain L143R, C-terminal ABD2-His6 tag; assay: LCCA: heavy chain co-expressed with two light chains, SPR detection of light chain tags; L1:L2 DNA 1:3, normalized to 1:1; competing light chain m19
[17] = biological target: D3H44 Fab heavy chain L143E_K145T, C-terminal ABD2-His6 tag; assay: as above
[18] = biological target: D3H44 Fab heavy chain S186K, C-terminal ABD2-His6 tag; assay: LCCA: heavy chain co-expressed with two light chains, SPR detection of light chain tags; L1:L2 DNA 1:3, normalized to 1:1; competing light chain m14
[19] = biological target: D3H44 Fab heavy chain Q179K, C-terminal ABD2-His6 tag; assay: as above
[20] = biological target: D3H44 Fab heavy chain L143E_K145T_S188L, C-terminal ABD2-His6 tag; assay: as above
[21] = biological target: D3H44 Fab heavy chain S186K, C-terminal ABD2-His6 tag; assay: LCCA: heavy chain co-expressed with two light chains, SPR detection of light chain tags; L1:L2 DNA 1:9, normalized to 1:1; competing light chain m12
[22] = biological target: D3H44 Fab heavy chain L143E_K145T_S188L, C-terminal ABD2-His6 tag; assay: as above
[23] = biological target: D3H44 Fab heavy chain L143R, C-terminal ABD2-His6 tag; assay: LCCA: heavy chain co-expressed with two light chains, SPR detection of light chain tags; L1:L2 DNA 1:3, normalized to 1:1; competing light chain m17
[24] = biological target: D3H44 Fab heavy chain L143E_K145T_S188L, C-terminal ABD2-His6 tag; assay: as above
[25] = biological target: D3H44 Fab heavy chain S186K, C-terminal ABD2-His6 tag; assay: LCCA: heavy chain co-expressed with two light chains, SPR detection of light chain tags; L1:L2 DNA 1:9, normalized to 1:1; competing light chain m13
[26] = biological target: D3H44 Fab heavy chain L143E_K145T, C-terminal ABD2-His6 tag; assay: as above
[27] = biological target: D3H44 Fab heavy chain L143E_K145T, C-terminal ABD2-His6 tag; assay: LCCA: heavy chain co-expressed with two light chains, SPR detection of light chain tags; L1:L2 DNA 1:3, normalized to 1:1; competing light chain m13
[28] = biological target: D3H44 Fab heavy chain Q179R, C-terminal ABD2-His6 tag; assay: LCCA: heavy chain co-expressed with two light chains, SPR detection of light chain tags; L1:L2 DNA 1:3, normalized to 1:1; competing light chain m12
[29] = biological target: D3H44 Fab heavy chain S186K, C-terminal ABD2-His6 tag; assay: as above
[30] = biological target: D3H44 Fab heavy chain L143E_K145T_S188L, C-terminal ABD2-His6 tag; assay: as above
[31] = biological target: D3H44 Fab heavy chain Q179K, C-terminal ABD2-His6 tag; assay: LCCA: heavy chain co-expressed with two light chains, SPR detection of light chain tags; L1:L2 DNA 1:3, normalized to 1:1; competing light chain m16
[32] = biological target: D3H44 Fab heavy chain L143E_K145T_S188L, C-terminal ABD2-His6 tag; assay: as above
[33] = biological target: D3H44 Fab heavy chain L143R, C-terminal ABD2-His6 tag; assay: LCCA: heavy chain co-expressed with two light chains, SPR detection of light chain tags; L1:L2 DNA 1:9, normalized to 1:1; competing light chain m17
[34] = biological target: D3H44 Fab heavy chain L143E_K145T_S188L, C-terminal ABD2-His6 tag; assay: as above
[35] = biological target: D3H44 Fab heavy chain Q179K, C-terminal ABD2-His6 tag; assay: LCCA: heavy chain co-expressed with two light chains, SPR detection of light chain tags; L1:L2 DNA 1:3, normalized to 1:1; competing light chain m15
[36] = biological target: D3H44 Fab heavy chain L143E_K145T, C-terminal ABD2-His6 tag; assay: as above
[37] = biological target: D3H44 Fab heavy chain L143E_K145T_Q179E_S188L, C-terminal ABD2-His6 tag; assay: LCCA: heavy chain co-expressed with two light chains, SPR detection of light chain tags; L1:L2 DNA 1:3, normalized to 1:1; competing light chain m12
[38] = biological target: D3H44 Fab heavy chain S186R, C-terminal ABD2-His6 tag; assay: as above
[39] = biological target: tissue factor (TF) antigen (UniProt P13726); assay: SPR, Fab captured by anti-penta-His, TF injected, 1:1 fit
[40] = biological target: tissue factor (TF) antigen (UniProt P13726); assay: SPR; log change of median KD against wild-type D3H44 Fab
[41] = biological target: tissue factor (TF) antigen (UniProt P13726); assay: SPR; log change of median KD against wild-type D3H44 Fab; estimated (*) from a Fab that differs only in the L chain tag
[42] = biological target: tissue factor (TF) antigen (UniProt P13726); assay: SPR, Fab captured by anti-penta-His, TF injected, 1:1 fit; estimated (*) from a Fab that differs only in the L chain tag

Substance: D3H44 light chain Q124E_S131T_T178Y_T180E, N-terminal HA or FLAG tag
- H1L1:H1L2 normalized median ratio [1]: 17%
- H2L2:H2L1 normalized median ratio [2]: 88%
- H2L2:H2L1 normalized median ratio [3]: 89%
- H1L1:H1L2 normalized median ratio [4]: 16%
- H2L2:H2L1 normalized median ratio [5]: 95%
- H2L2:H2L1 normalized median ratio [6]: 94%
- H1L1:H1L2 normalized median ratio [7]: 26%

Substance: D3H44 light chain Q124E_T178E_T180E, N-terminal HA or FLAG tag
- H2L2:H2L1 normalized median ratio [3]: 90%
- H1L1:H1L2 normalized median ratio [8]: 19%
- H2L2:H2L1 normalized median ratio [6]: 91%
- H1L1:H1L2 normalized median ratio [9]: 18%

Substance: D3H44 light chain Q124E_V133D
- H1L1:H1L2 normalized median ratio [10]: 33%
- H2L2:H2L1 normalized median ratio [11]: 91%

Substance: D3H44 light chain Q124E_V133E_Q160M, N-terminal HA or FLAG tag
- H2L2:H2L1 normalized median ratio [12]: 88%
- H1L1:H1L2 normalized median ratio [13]: 15%

Substance: D3H44 light chain Q124E_V133E_S176L, N-terminal HA or FLAG tag
- H2L2:H2L1 normalized median ratio [14]: 79%
- H1L1:H1L2 normalized median ratio [4]: 14%
- H2L2:H2L1 normalized median ratio [15]: 94%
- H1L1:H1L2 normalized median ratio [7]: 26%

Substance: D3H44 light chain Q124R, N-terminal HA or FLAG tag
- H2L2:H2L1 normalized median ratio [16]: 12%
- H1L1:H1L2 normalized median ratio [17]: 85%
- H1L1:H1L2 normalized median scalar value ln(r1/f1) [17]: 1.77

Substance: D3H44 light chain Q124R_Q160K_T178R, N-terminal HA or FLAG tag
- H2L2:H2L1 normalized median ratio [18]: 3%
- H2L2:H2L1 normalized median ratio [19]: 3%
- H1L1:H1L2 normalized median ratio [20]: 57%
- H1L1:H1L2 normalized median scalar value ln(r1/f1) [20]: 0.28 and 0.23
- H2L2:H2L1 normalized median ratio [21]: 11%
- H1L1:H1L2 normalized median ratio [22]: 84%
- H1L1:H1L2 normalized median scalar value ln(r1/f1) [22]: 1.65
- H2L2:H2L1 normalized median ratio [23]: 6%
- H1L1:H1L2 normalized median ratio [24]: 74%
- H1L1:H1L2 normalized median scalar value ln(r1/f1) [24]: 1.04
- H2L2:H2L1 normalized median ratio [25]: 10%
- H1L1:H1L2 normalized median ratio [26]: 81%
- H1L1:H1L2 normalized median scalar value ln(r1/f1) [26]: 1.44
- H1L1:H1L2 normalized median ratio [27]: 82%
- H1L1:H1L2 normalized median scalar value ln(r1/f1) [27]: 1.77
- H2L2:H2L1 normalized median ratio [28]: 5%
- H2L2:H2L1 normalized median ratio [29]: 6%
- H1L1:H1L2 normalized median ratio [30]: 74%
- H1L1:H1L2 normalized median scalar value ln(r1/f1) [30]: 1.03
- H2L2:H2L1 normalized median ratio [31]: 3%
- H1L1:H1L2 normalized median ratio [32]: 59%
- H1L1:H1L2 normalized median scalar value ln(r1/f1) [32]: 0.37
- H2L2:H2L1 normalized median ratio [33]: 21%
- H1L1:H1L2 normalized median ratio [34]: 86%
- H1L1:H1L2 normalized median scalar value ln(r1/f1) [34]: 1.79
- H2L2:H2L1 normalized median ratio [35]: 2%
- H1L1:H1L2 normalized median ratio [36]: 47%
- H1L1:H1L2 normalized median scalar value ln(r1/f1) [36]: -0.14

Substance: D3H44 light chain Q124R_T178R, N-terminal HA or FLAG tag
- H1L1:H1L2 normalized median ratio [37]: 83%
- H1L1:H1L2 normalized median scalar value ln(r1/f1) [37]: 1.62
- H2L2:H2L1 normalized median ratio [38]: 12%

Substance: H1L1 Fab heterodimer of LCCA sets 9589, 9587, 9588 and 9585 (D3H44 Fab, H1 L143E_K145T, L1 Q124R)
- Kd [39]: 0.28 nM
- Change in median values of KD of h1l1 Fab heterodimer compared to wild type (-(log(KD design)-log(KD wt))) [40]: -0.25 log units
- Change in median values of KD of h1l1 Fab heterodimer compared to wild type (-(log(KD design)-log(KD wt))) [41]: -0.25 log units
- Kd [42]: 0.28 nM
